Two molecules from patent publication US20200332017A1 (SALUBRIS CHENGDU BIOTECH, published 2020) can be followed below.

The target in assay [1] is T1, human CD40-Fc protein (amino acid residue 21-193 of SEQ ID NO: 67 linked to N-terminus of amino acid residue … (human, biotin-labeled in the capture ELISA and in the benchmark blocking ELISA; unlabeled when coated in the ligand blocking ELISA).
T1 construct: also called biotin-labeled human CD40-Fc; human CD40-Fc-biotin
The assay can be described thus: capture ELISA, biotin human CD40-Fc; mAb at 2000 ng/mL. On the procedure:
(§1) Plates were washed 4 times with wash buffer (PBS+0.05% Tween-20, PBST) and then blocked with 200 μl/well blocking buffer (5% w/v non-fatty milk in PBST) for 2 hours at 37° C. […] After a final wash, plates were incubated with 100 μl/well ELISA substrate TMB (Innoreagents, Cat # TMB-S-002). The reaction was stopped in 15 minutes at 25° C. with 50 μl/well 1M H₂SO₄, and the absorbance was read at 450 nm and plotted against antibody concentration. Data were analyzed using Graphpad Prism software and EC₅₀ values were reported.
(In an ELISA, binding on a coated surface is turned into a signal by an enzyme label.)

Assay [2] addresses T1, human CD40-Fc protein (amino acid …). The assay can be described thus: capture ELISA, biotin human CD40-Fc; mAb at 80 ng/mL. On the procedure: as §1
For assay [3] the target is unchanged. The assay can be described thus: capture ELISA, biotin human CD40-Fc; mAb at 400 ng/mL. As to the method:
as §1

Assay [4] addresses T2, full length human CD40 (uniprot # P25942-1) on the membrane of 293T-CD40 cells (human, UniProt P25942 21-277).
T2 construct: also called cell surface CD40
The assay can be described thus: flow cytometry on 293T-CD40 cells, PE-labeled secondary antibody, MFI. As to the method: (§2) 2×10⁵ cells per well in 96 well-plates were incubated with the mouse anti-CD40 antibodies or the controls of various concentrations in FACS buffer for 40 minutes on ice. […] Following an incubation of 40 minutes at 4° C. in dark, cells were washed three times and resuspended in FACS buffer. Fluorescence was measured using a Becton Dickinson FACS Canto II-HTS equipment and plotted against antibody concentration.
(In flow cytometry, cells or beads pass a laser one at a time.)

For assay [5], the target named is T2, full length human CD40 (uniprot # …). As to the kind of experiment: flow cytometry on 293T-CD40 cells. On the procedure: as §2
Assay [6] has as its target T1, human CD40-Fc protein (amino acid …). The assay can be described thus: capture ELISA; antibody captured, biotin-labeled human CD40-Fc in solution. On the procedure:
as §1
(§3) In the capture ELISA test, a mouse control antibody targeting a protein other than CD40 was used.

The target is the same in assay [7]. The assay can be described thus: competitive ELISA; biotin human CD40-Fc in solution, competitor coated BM2. On the procedure: (§4) The ability of the mouse anti-CD40 antibodies of the present invention to block the binding of the Benchmark to human CD40 was measured using a competitive ELISA assay. […] The next day, plates were washed with wash buffer, and blocked with 5% w/v non-fatty milk in PBST for 2 hours at 37° C. Plates were then washed again using wash buffer. […] After incubation at 37° C. for 40 minutes, plates were washed 4 times using wash buffer. Then streptavidin conjugated HRP was added and incubated for 40 minutes at 37° C. to detect biotin-labeled human CD40-Fc bound to plates. Plates were washed again using wash buffer. Finally, TMB was added and the reaction was stopped using 1M H₂SO₄, and the absorbance was read at 450 nm. Data were analyzed using Graphpad Prism software and IC₅₀ values were reported.

Assay [8] concerns the target T2, full length human CD40 (uniprot # …). The assay can be described thus: flow cytometry on 293T-CD40 cells. As to the method: as §2
This is another data set of the same source.

Assay [9] has as its target T1, human CD40-Fc protein (amino acid …). The assay can be described thus: benchmark blocking ELISA: BM2 (Selicrelumab) coated as competitor, antibody titrated in biotin-labeled human CD40-Fc solution, streptavidin-HRP, OD(450-630). As to the method:
as §4

Assay [10] has the same target. The assay can be described thus: competitive ELISA; biotin human CD40-Fc in solution, competitor coated BM2. On the procedure: as §4, §3
This is another data set of the same source.

Assay [11] shares this target. As to the kind of experiment: capture ELISA, biotin human CD40-Fc; mAb at 16 ng/mL. As to the method:
as §1

For assay [12] the target is unchanged. As to the kind of experiment: capture ELISA, biotin human CD40-Fc; mAb at 10000 ng/mL. As to the method: as §1
Assay [13] has the same target. As to the kind of experiment: capture ELISA (antibody captured on coated goat anti-human IgG F(ab')2, biotin-labeled human CD40-Fc in solution, streptavidin-HRP, OD(450-630)).

Like-named read-outs stand apart in the source and are kept apart here.

B1: mouse anti-CD40 monoclonal antibody C1C1 (antibody, V domains shown)
VH: EVKLVESGGGLVKPGASLKLSCAASGFTFSNYGMSWVRQNSDKRLEWVASISSGGDDTYYPDNVKGRCTISRENAKNTLYLEMSSLKTEDTALYYCTRAGGKAMDYWGQGTSVTVST
VL: DIVLTQSPATLSVIPGNSVSLSCRASQSIRDNLHWYQQKSHESPRLLINYASQSISGIPSRFSGSGSGTDFTLTINSVETEDFGIYFCQQFNSWPLTFGGGTKLELK
notes: those are used here for the chimeric antibody only; also called Mouse C1C1; mouse C1C1
In the case of B1, the “absorbance at 450 nm” value in assay [1] was 1.75 OD450; in assay [2] it was 1.48 OD450; in [3] it was 1.69 OD450; in [11], 0.764 OD450; in [12] it was 1.81 OD450. In [4], the EC50 (read off the curve) (in general, the midpoint of the concentration-response curve) was ~0.3 µg/mL. Moreover, the EC50 (usually the concentration needed to bring the measured effect to its halfway point) was 1.86 nM in assay [5], 0.192 nM in [6] and 0.538 nM in assay [8]. The IC50 in assay [7] and in assay [10] was 0.461 nM throughout. Further, the “IC50 (read off the curve)” value in [9] is ~0.5 nM.

B2: chimeric antibody C1C1 (antibody, human IgG1, kappa, V domains shown)
VH: B1 VH
VL: DIVLTQSPATLSVIPGNSVSLSCRASQSIRDNLHWYQQKSHESPRLLINYASQSISGIPSRFSGSGSGTDFTLTINSVETEDFGIYFCQQFNSWPLTFGGGTKLELKR
notes: also called chC1C1; chimeric C1C1
In the case of B2, the “absorbance at 450 nm” value came out at 1.83 OD450 in [1]; 1.17 OD450 in assay [2]; 1.79 OD450 in [3]; 0.329 OD450 in assay [11]; 1.96 OD450 in [12]. Further, the half-maximal effective concentration (EC50 (read off the curve)) was ~0.3 µg/mL in [4] and ~0.03 µg/mL in [13]. Besides, the results for the EC50 in assay [5] and in assay [6] were 1.82 nM and 0.24 nM, respectively. The IC50 – broadly, the concentration needed to halve the response being measured – in assay [7] worked out at 0.126 nM; in assay [10], 0.13 nM. The “IC50 (read off the curve)” value in assay [9] is ~0.02 µg/mL.
